The results in this text go back to article PMC3012730, “The Actinobacillus pleuropneumoniae HMW1C-Like Glycosyltransferase Mediates N-Linked Glycosylation of the Haemophilus influenzae HMW1 Adhesin” (PLoS ONE, 2010).

For data set [1], the system named is O=c1ccn([C@@H]2O[C@H](COP(=O)(O)OP(=O)(O)O[C@H]3O[C@H](CO)[C@H](O)[C@H](O)[C@H]3O)[C@@H](O)[C@H]2O)c(=O)[nH]1. Nature of the data set: purified protein. The conditions noted are these: apparent Km, fixed acceptor protein His-HMW1ct (standard 3.2 µM), 50 mM HEPES pH 8.0, 50 mM KCl, 5 mM MgCl2, room temperature.
Data set [2] deals with O=c1ccn([C@@H]2O[C@H](CO[P@@](=O)(O)O[P@@](=O)(O)O[C@H]3O[C@H](CO)[C@@H](O)[C@H](O)[C@H]3O)[C@@H](O)[C@H]2O)c(=O)[nH]1. Briefly: purified protein. Particulars: apparent Km, fixed acceptor protein His-HMW1ct (standard 3.2 µM), 50 mM HEPES pH 8.0, 50 mM KCl, 5 mM MgCl2, room temperature.

Consider “ApHMW1C (Actinobacillus pleuropneumoniae serovar 5b str. L20)”, for which, in data set [1], the Km was 147.5 ± 24.8 µM, the Vmax is 0.0643 µmol/min/mg, the kcat is 0.077 ± 0.005 s⁻¹ and the kcat/Km turned out to be 520 ± 210 M⁻¹ s⁻¹. In addition, in data set [2], the Michaelis-Menten constant (Km) was 38.9 ± 5.8 µM, the Vmax turned out to be 0.109 µmol/min/mg, the kcat was found to be 0.13 ± 0.005 s⁻¹ and the kcat/Km stood at 3300 ± 800 M⁻¹ s⁻¹.

As usually defined, the Km is the concentration of substrate that gives half-maximal velocity. The term Vmax denotes the top rate of the reaction or transport when substrate is in excess. One may read the kcat as the maximal rate divided by the concentration of active sites. For orientation: kcat/Km means the second-order rate constant that governs catalysis at low substrate concentration.
